This is an account of results in patent publication US20220096547A1.

Where only a bound is given, the exact number is not on record here.

The target in this assay is human TLR5 (human) (UniProt O60602). The experiment in a line: cell-based or functional assay.
Sequence of UniProt O60602 (O60602 21-858): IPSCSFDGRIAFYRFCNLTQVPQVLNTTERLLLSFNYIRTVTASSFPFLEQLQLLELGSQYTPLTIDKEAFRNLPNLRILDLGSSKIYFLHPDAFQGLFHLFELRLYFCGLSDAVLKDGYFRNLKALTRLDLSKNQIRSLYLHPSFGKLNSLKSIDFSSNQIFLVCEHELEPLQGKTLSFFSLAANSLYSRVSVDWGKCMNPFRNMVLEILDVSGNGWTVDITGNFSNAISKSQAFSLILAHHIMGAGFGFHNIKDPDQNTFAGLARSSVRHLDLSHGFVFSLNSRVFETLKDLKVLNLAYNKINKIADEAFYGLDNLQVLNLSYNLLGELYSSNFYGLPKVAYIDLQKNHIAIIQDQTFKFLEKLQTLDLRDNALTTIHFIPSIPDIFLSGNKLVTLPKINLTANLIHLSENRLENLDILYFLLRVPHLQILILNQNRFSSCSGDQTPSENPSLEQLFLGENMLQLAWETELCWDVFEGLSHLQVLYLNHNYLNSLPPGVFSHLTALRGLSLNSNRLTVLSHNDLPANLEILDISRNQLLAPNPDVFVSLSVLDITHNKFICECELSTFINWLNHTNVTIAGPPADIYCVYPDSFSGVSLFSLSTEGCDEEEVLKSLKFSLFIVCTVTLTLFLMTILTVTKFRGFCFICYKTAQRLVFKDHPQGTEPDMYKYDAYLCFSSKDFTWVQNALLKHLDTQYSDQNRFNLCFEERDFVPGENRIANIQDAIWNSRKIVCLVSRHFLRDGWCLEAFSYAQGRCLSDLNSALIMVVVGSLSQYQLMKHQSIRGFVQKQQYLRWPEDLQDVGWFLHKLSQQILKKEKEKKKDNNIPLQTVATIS
Take “Salmonella typhimurium flagellin fragment Flic-6a (from UniProt P06175 71-493) (ligand)”: the TLR5 activation activity (NF-κB SEAP reporter assay) compared to full-length flagellin was above 50%.

Substance “Salmonella typhimurium flagellin fragment Flic-7a (from UniProt P06175 71-493) (ligand)” had a TLR5 activation activity (NF-κB SEAP reporter assay) compared to full-length flagellin above 50%.

In the case of “Salmonella typhimurium flagellin fragment Flic-8a (from UniProt P06175 71-493) (ligand)”, the TLR5 activation activity (NF-κB SEAP reporter assay) compared to full-length flagellin was above 50%. As for “Salmonella typhimurium flagellin fragment Flic-12a (from UniProt P06175 37-493) (ligand)”, the figure is above 50%; as for “Salmonella typhimurium flagellin fragment Flic-14a (from UniProt P06175 37-493) (ligand)”, above 50%. Consider “Salmonella typhimurium flagellin fragment Flic-15a (from UniProt P06175 37-493) (ligand)”, for which the TLR5 activation activity (NF-κB SEAP reporter assay) compared to full-length flagellin is above 50%. As for “Salmonella typhimurium flagellin fragment Flic-20a (from UniProt P06175 51-493) (ligand)”, the figure is above 50%; as for “Salmonella typhimurium flagellin fragment Flic-21a (from UniProt P06175 51-469) (ligand)”, above 50%. Turning to “Salmonella typhimurium flagellin fragment Flic-22a (from UniProt P06175 51-493) (ligand)”, the TLR5 activation activity (NF-κB SEAP reporter assay) compared to full-length flagellin is above 50%. The same measure for “Salmonella typhimurium flagellin fragment Flic-23a (from UniProt P06175 51-493) (ligand)”: above 50%.
